[ ]: non-standard residue; d: D form.

The labels stand for the following.
B1: cyclic nNOS β-hairpin peptide D114A (peptide)
peptide: cyclo(THLETTFTGAGTPKTIRVTQ[dP]GQ)
SMILES: CC[C@H](C)[C@@H]1NC(=O)[C@H]([C@@H](C)O)NC(=O)[C@H](CCCCN)NC(=O)[C@@H]2CCCN2C(=O)[C@H]([C@@H](C)O)NC(=O)CNC(=O)[C@H](C)NC(=O)CNC(=O)[C@H]([C@@H](C)O)NC(=O)[C@H](Cc2ccccc2)NC(=O)[C@H]([C@@H](C)O)NC(=O)[C@H]([C@@H](C)O)NC(=O)[C@H](CCC(=O)O)NC(=O)[C@H](CC(C)C)NC(=O)[C@H](Cc2c[nH]cn2)NC(=O)[C@H]([C@@H](C)O)NC(=O)[C@H](CCC(N)=O)NC(=O)CNC(=O)[C@H]2CCCN2C(=O)[C@H](CCC(N)=O)NC(=O)[C@H]([C@@H](C)O)NC(=O)[C@H](C(C)C)NC(=O)[C@H](CCCNC(=N)N)NC1=O
B2: cyclic nNOS β-hairpin peptide H106A (peptide)
peptide: cyclo(TALETTFTGDGTPKTIRVTQ[dP]GQ)
SMILES: CC[C@H](C)[C@@H]1NC(=O)[C@H]([C@@H](C)O)NC(=O)[C@H](CCCCN)NC(=O)[C@@H]2CCCN2C(=O)[C@H]([C@@H](C)O)NC(=O)CNC(=O)[C@H](CC(=O)O)NC(=O)CNC(=O)[C@H]([C@@H](C)O)NC(=O)[C@H](Cc2ccccc2)NC(=O)[C@H]([C@@H](C)O)NC(=O)[C@H]([C@@H](C)O)NC(=O)[C@H](CCC(=O)O)NC(=O)[C@H](CC(C)C)NC(=O)[C@H](C)NC(=O)[C@H]([C@@H](C)O)NC(=O)[C@H](CCC(N)=O)NC(=O)CNC(=O)[C@H]2CCCN2C(=O)[C@H](CCC(N)=O)NC(=O)[C@H]([C@@H](C)O)NC(=O)[C@H](C(C)C)NC(=O)[C@H](CCCNC(=N)N)NC1=O
B3: cyclic nNOS β-hairpin peptide T105A (peptide)
peptide: cyclo(AHLETTFTGDGTPKTIRVTQ[dP]GQ)
SMILES: CC[C@H](C)[C@@H]1NC(=O)[C@H]([C@@H](C)O)NC(=O)[C@H](CCCCN)NC(=O)[C@@H]2CCCN2C(=O)[C@H]([C@@H](C)O)NC(=O)CNC(=O)[C@H](CC(=O)O)NC(=O)CNC(=O)[C@H]([C@@H](C)O)NC(=O)[C@H](Cc2ccccc2)NC(=O)[C@H]([C@@H](C)O)NC(=O)[C@H]([C@@H](C)O)NC(=O)[C@H](CCC(=O)O)NC(=O)[C@H](CC(C)C)NC(=O)[C@H](Cc2c[nH]cn2)NC(=O)[C@H](C)NC(=O)[C@H](CCC(N)=O)NC(=O)CNC(=O)[C@H]2CCCN2C(=O)[C@H](CCC(N)=O)NC(=O)[C@H]([C@@H](C)O)NC(=O)[C@H](C(C)C)NC(=O)[C@H](CCCNC(=N)N)NC1=O
B4: cyclic nNOS β-hairpin peptide K118A (peptide)
peptide: cyclo(THLETTFTGDGTPATIRVTQ[dP]GQ)
SMILES: CC[C@H](C)[C@@H]1NC(=O)[C@H]([C@@H](C)O)NC(=O)[C@H](C)NC(=O)[C@@H]2CCCN2C(=O)[C@H]([C@@H](C)O)NC(=O)CNC(=O)[C@H](CC(=O)O)NC(=O)CNC(=O)[C@H]([C@@H](C)O)NC(=O)[C@H](Cc2ccccc2)NC(=O)[C@H]([C@@H](C)O)NC(=O)[C@H]([C@@H](C)O)NC(=O)[C@H](CCC(=O)O)NC(=O)[C@H](CC(C)C)NC(=O)[C@H](Cc2c[nH]cn2)NC(=O)[C@H]([C@@H](C)O)NC(=O)[C@H](CCC(N)=O)NC(=O)CNC(=O)[C@H]2CCCN2C(=O)[C@H](CCC(N)=O)NC(=O)[C@H]([C@@H](C)O)NC(=O)[C@H](C(C)C)NC(=O)[C@H](CCCNC(=N)N)NC1=O
B5: cyclic nNOS β-hairpin peptide I120A (peptide)
peptide: cyclo(THLETTFTGDGTPKTARVTQ[dP]GQ)
SMILES: CC(C)C[C@@H]1NC(=O)[C@H](Cc2c[nH]cn2)NC(=O)[C@H]([C@@H](C)O)NC(=O)[C@H](CCC(N)=O)NC(=O)CNC(=O)[C@H]2CCCN2C(=O)[C@H](CCC(N)=O)NC(=O)[C@H]([C@@H](C)O)NC(=O)[C@H](C(C)C)NC(=O)[C@H](CCCNC(=N)N)NC(=O)[C@H](C)NC(=O)[C@H]([C@@H](C)O)NC(=O)[C@H](CCCCN)NC(=O)[C@@H]2CCCN2C(=O)[C@H]([C@@H](C)O)NC(=O)CNC(=O)[C@H](CC(=O)O)NC(=O)CNC(=O)[C@H]([C@@H](C)O)NC(=O)[C@H](Cc2ccccc2)NC(=O)[C@H]([C@@H](C)O)NC(=O)[C@H]([C@@H](C)O)NC(=O)[C@H](CCC(=O)O)NC1=O
B6: cyclic nNOS β-hairpin peptide Q124A (peptide)
peptide: cyclo(THLETTFTGDGTPKTIRVTA[dP]GQ)
SMILES: CC[C@H](C)[C@@H]1NC(=O)[C@H]([C@@H](C)O)NC(=O)[C@H](CCCCN)NC(=O)[C@@H]2CCCN2C(=O)[C@H]([C@@H](C)O)NC(=O)CNC(=O)[C@H](CC(=O)O)NC(=O)CNC(=O)[C@H]([C@@H](C)O)NC(=O)[C@H](Cc2ccccc2)NC(=O)[C@H]([C@@H](C)O)NC(=O)[C@H]([C@@H](C)O)NC(=O)[C@H](CCC(=O)O)NC(=O)[C@H](CC(C)C)NC(=O)[C@H](Cc2c[nH]cn2)NC(=O)[C@H]([C@@H](C)O)NC(=O)[C@H](CCC(N)=O)NC(=O)CNC(=O)[C@H]2CCCN2C(=O)[C@H](C)NC(=O)[C@H]([C@@H](C)O)NC(=O)[C@H](C(C)C)NC(=O)[C@H](CCCNC(=N)N)NC1=O
B7: cyclic nNOS β-hairpin peptide G113A (peptide)
peptide: cyclo(THLETTFTADGTPKTIRVTQ[dP]GQ)
SMILES: CC[C@H](C)[C@@H]1NC(=O)[C@H]([C@@H](C)O)NC(=O)[C@H](CCCCN)NC(=O)[C@@H]2CCCN2C(=O)[C@H]([C@@H](C)O)NC(=O)CNC(=O)[C@H](CC(=O)O)NC(=O)[C@H](C)NC(=O)[C@H]([C@@H](C)O)NC(=O)[C@H](Cc2ccccc2)NC(=O)[C@H]([C@@H](C)O)NC(=O)[C@H]([C@@H](C)O)NC(=O)[C@H](CCC(=O)O)NC(=O)[C@H](CC(C)C)NC(=O)[C@H](Cc2c[nH]cn2)NC(=O)[C@H]([C@@H](C)O)NC(=O)[C@H](CCC(N)=O)NC(=O)CNC(=O)[C@H]2CCCN2C(=O)[C@H](CCC(N)=O)NC(=O)[C@H]([C@@H](C)O)NC(=O)[C@H](C(C)C)NC(=O)[C@H](CCCNC(=N)N)NC1=O
B8: cyclic nNOS β-hairpin peptide P117A (peptide)
peptide: cyclo(THLETTFTGDGTAKTIRVTQ[dP]GQ)
SMILES: CC[C@H](C)[C@@H]1NC(=O)[C@H]([C@@H](C)O)NC(=O)[C@H](CCCCN)NC(=O)[C@H](C)NC(=O)[C@H]([C@@H](C)O)NC(=O)CNC(=O)[C@H](CC(=O)O)NC(=O)CNC(=O)[C@H]([C@@H](C)O)NC(=O)[C@H](Cc2ccccc2)NC(=O)[C@H]([C@@H](C)O)NC(=O)[C@H]([C@@H](C)O)NC(=O)[C@H](CCC(=O)O)NC(=O)[C@H](CC(C)C)NC(=O)[C@H](Cc2c[nH]cn2)NC(=O)[C@H]([C@@H](C)O)NC(=O)[C@H](CCC(N)=O)NC(=O)CNC(=O)[C@H]2CCCN2C(=O)[C@H](CCC(N)=O)NC(=O)[C@H]([C@@H](C)O)NC(=O)[C@H](C(C)C)NC(=O)[C@H](CCCNC(=N)N)NC1=O
B9: cyclic nNOS β-hairpin peptide R121A (peptide)
peptide: cyclo(THLETTFTGDGTPKTIAVTQ[dP]GQ)
SMILES: CC[C@H](C)[C@@H]1NC(=O)[C@H]([C@@H](C)O)NC(=O)[C@H](CCCCN)NC(=O)[C@@H]2CCCN2C(=O)[C@H]([C@@H](C)O)NC(=O)CNC(=O)[C@H](CC(=O)O)NC(=O)CNC(=O)[C@H]([C@@H](C)O)NC(=O)[C@H](Cc2ccccc2)NC(=O)[C@H]([C@@H](C)O)NC(=O)[C@H]([C@@H](C)O)NC(=O)[C@H](CCC(=O)O)NC(=O)[C@H](CC(C)C)NC(=O)[C@H](Cc2c[nH]cn2)NC(=O)[C@H]([C@@H](C)O)NC(=O)[C@H](CCC(N)=O)NC(=O)CNC(=O)[C@H]2CCCN2C(=O)[C@H](CCC(N)=O)NC(=O)[C@H]([C@@H](C)O)NC(=O)[C@H](C(C)C)NC(=O)[C@H](C)NC1=O
B10: cyclic nNOS β-hairpin peptide E108A (peptide)
peptide: cyclo(THLATTFTGDGTPKTIRVTQ[dP]GQ)
SMILES: CC[C@H](C)[C@@H]1NC(=O)[C@H]([C@@H](C)O)NC(=O)[C@H](CCCCN)NC(=O)[C@@H]2CCCN2C(=O)[C@H]([C@@H](C)O)NC(=O)CNC(=O)[C@H](CC(=O)O)NC(=O)CNC(=O)[C@H]([C@@H](C)O)NC(=O)[C@H](Cc2ccccc2)NC(=O)[C@H]([C@@H](C)O)NC(=O)[C@H]([C@@H](C)O)NC(=O)[C@H](C)NC(=O)[C@H](CC(C)C)NC(=O)[C@H](Cc2c[nH]cn2)NC(=O)[C@H]([C@@H](C)O)NC(=O)[C@H](CCC(N)=O)NC(=O)CNC(=O)[C@H]2CCCN2C(=O)[C@H](CCC(N)=O)NC(=O)[C@H]([C@@H](C)O)NC(=O)[C@H](C(C)C)NC(=O)[C@H](CCCNC(=N)N)NC1=O
B11: cyclic nNOS β-hairpin peptide L107A (peptide)
peptide: cyclo(THAETTFTGDGTPKTIRVTQ[dP]GQ)
SMILES: CC[C@H](C)[C@@H]1NC(=O)[C@H]([C@@H](C)O)NC(=O)[C@H](CCCCN)NC(=O)[C@@H]2CCCN2C(=O)[C@H]([C@@H](C)O)NC(=O)CNC(=O)[C@H](CC(=O)O)NC(=O)CNC(=O)[C@H]([C@@H](C)O)NC(=O)[C@H](Cc2ccccc2)NC(=O)[C@H]([C@@H](C)O)NC(=O)[C@H]([C@@H](C)O)NC(=O)[C@H](CCC(=O)O)NC(=O)[C@H](C)NC(=O)[C@H](Cc2c[nH]cn2)NC(=O)[C@H]([C@@H](C)O)NC(=O)[C@H](CCC(N)=O)NC(=O)CNC(=O)[C@H]2CCCN2C(=O)[C@H](CCC(N)=O)NC(=O)[C@H]([C@@H](C)O)NC(=O)[C@H](C(C)C)NC(=O)[C@H](CCCNC(=N)N)NC1=O

T1 sequence (P78352 160-246): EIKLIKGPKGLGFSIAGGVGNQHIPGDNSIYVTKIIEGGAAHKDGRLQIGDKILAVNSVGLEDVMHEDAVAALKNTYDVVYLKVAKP

The assay addresses T1, (7× His)-PSD-95-PDZ2 wild type (UniProt P78352 160-246).
T1 construct: domain: PDZ2; recombinant from E. coli; also called PSD-95-PDZ2 WT; not shown: 7x His tag
In words: FP competition.
As for B1, the Ki was 3.22 µM and the “Relative Ki (Ki mut/Ki WT)” value turned out to be 2.15.

For B2, the affinity corresponds to a Ki of 2.06 µM and the “Relative Ki (Ki mut/Ki WT)” value was 1.37.

Regarding B3, the Ki came out at 1.5 µM and the “Relative Ki (Ki mut/Ki WT)” value turned out to be 1.

On to B4, for which the Ki worked out at 1.43 µM and the “Relative Ki (Ki mut/Ki WT)” value amounted to 0.95.

For the molecule B5, the affinity corresponds to a Ki of 1.76 µM and the “Relative Ki (Ki mut/Ki WT)” value was found to be 1.17.

In the case of B6, the Ki was determined as 1.51 µM and the “Relative Ki (Ki mut/Ki WT)” value turned out to be 1.01.

On to B7, for which the Ki came to 4.55 µM and the “Relative Ki (Ki mut/Ki WT)” value worked out at 3.03.

Turning to B8, the Ki is 1.61 µM and the “Relative Ki (Ki mut/Ki WT)” value is 1.07.

In the case of B9, affinity was put at a Ki of 2.47 µM and the “Relative Ki (Ki mut/Ki WT)” value is 1.65.

For the molecule B10, the Ki was 21.2 µM and the “Relative Ki (Ki mut/Ki WT)” value came to 14.1.

As for B11, affinity was put at a Ki of 3.54 µM and the “Relative Ki (Ki mut/Ki WT)” value was determined as 2.36.

Source of the values: US20230220021A1 (UNIVERSITY OF COPENHAGEN, published 2023).
